Measurements as given in article doi:10.1101/244665 (bioRxiv, 2019).

B1: PfA-M17(Δ388–390) (enzyme, Plasmodium falciparum, UniProt Q8IL11 85-605, looked up)
chain: ASEVPQVVSLDPTSIPIEYNTPIHDIKVQVYDIKGGCNVEEGLTIFLVNNPGKENGPVKISSKVNDKNVSEFLKDENMEKFNVKLGTSKHFYMFNDNKNSVAVGYVGCGSVADLSEADMKRVVLSLVTMLHDNKLSKLTVVFEINVDKNLFRFFLETLFYEYMTDERFKSTDKNVNMEYIKHLGVYINNADTYKEEVEKARVYYFGTYYASQLIAAPSNYCNPVSLSNAAVELAQKLNLEYKILGVKELEELKMGAYLSVGKGSMYPNKFIHLTYKSKGDVKKKIALVGKGITFDSGGYNLKASMIDLMKFDMSGCAAVLGCAYCVGTLKPENVEIHFLSAVCENMVSKNSYRPGDIITASNGKTIEVGNTDAEGRLTLADALVYAEKLGVDYIVDIATLTGAMLYSLGTSYAGVFGNNEELINKILNSSKTSNEPVWWLPIINEYRATLNSKYADINNISSSVKASSIVASLFLKEFVQNTAWAHIDIAGVSWNFKARKPKGFGVRLLTEFVLNDAL
B2: Plasmodium falciparum M17 aminopeptidase (PfA-M17), wild type, truncated (amino acids 85-605) (enzyme, UniProt Q8IL11 85-605, looked up)
chain: ASEVPQVVSLDPTSIPIEYNTPIHDIKVQVYDIKGGCNVEEGLTIFLVNNPGKENGPVKISSKVNDKNVSEFLKDENMEKFNVKLGTSKHFYMFNDNKNSVAVGYVGCGSVADLSEADMKRVVLSLVTMLHDNKLSKLTVVFEINVDKNLFRFFLETLFYEYMTDERFKSTDKNVNMEYIKHLGVYINNADTYKEEVEKARVYYFGTYYASQLIAAPSNYCNPVSLSNAAVELAQKLNLEYKILGVKELEELKMGAYLSVGKGSMYPNKFIHLTYKSKGDVKKKIALVGKGITFDSGGYNLKAAPGSMIDLMKFDMSGCAAVLGCAYCVGTLKPENVEIHFLSAVCENMVSKNSYRPGDIITASNGKTIEVGNTDAEGRLTLADALVYAEKLGVDYIVDIATLTGAMLYSLGTSYAGVFGNNEELINKILNSSKTSNEPVWWLPIINEYRATLNSKYADINNISSSVKASSIVASLFLKEFVQNTAWAHIDIAGVSWNFKARKPKGFGVRLLTEFVLNDAL
B3: PfA-M17(A387P) (enzyme, Plasmodium falciparum, UniProt Q8IL11 85-605, looked up)
chain: ASEVPQVVSLDPTSIPIEYNTPIHDIKVQVYDIKGGCNVEEGLTIFLVNNPGKENGPVKISSKVNDKNVSEFLKDENMEKFNVKLGTSKHFYMFNDNKNSVAVGYVGCGSVADLSEADMKRVVLSLVTMLHDNKLSKLTVVFEINVDKNLFRFFLETLFYEYMTDERFKSTDKNVNMEYIKHLGVYINNADTYKEEVEKARVYYFGTYYASQLIAAPSNYCNPVSLSNAAVELAQKLNLEYKILGVKELEELKMGAYLSVGKGSMYPNKFIHLTYKSKGDVKKKIALVGKGITFDSGGYNLKPAPGSMIDLMKFDMSGCAAVLGCAYCVGTLKPENVEIHFLSAVCENMVSKNSYRPGDIITASNGKTIEVGNTDAEGRLTLADALVYAEKLGVDYIVDIATLTGAMLYSLGTSYAGVFGNNEELINKILNSSKTSNEPVWWLPIINEYRATLNSKYADINNISSSVKASSIVASLFLKEFVQNTAWAHIDIAGVSWNFKARKPKGFGVRLLTEFVLNDAL
B4: PfA-M17(Δ388–389) (enzyme, Plasmodium falciparum, UniProt Q8IL11 85-605, looked up)
chain: ASEVPQVVSLDPTSIPIEYNTPIHDIKVQVYDIKGGCNVEEGLTIFLVNNPGKENGPVKISSKVNDKNVSEFLKDENMEKFNVKLGTSKHFYMFNDNKNSVAVGYVGCGSVADLSEADMKRVVLSLVTMLHDNKLSKLTVVFEINVDKNLFRFFLETLFYEYMTDERFKSTDKNVNMEYIKHLGVYINNADTYKEEVEKARVYYFGTYYASQLIAAPSNYCNPVSLSNAAVELAQKLNLEYKILGVKELEELKMGAYLSVGKGSMYPNKFIHLTYKSKGDVKKKIALVGKGITFDSGGYNLKAGSMIDLMKFDMSGCAAVLGCAYCVGTLKPENVEIHFLSAVCENMVSKNSYRPGDIITASNGKTIEVGNTDAEGRLTLADALVYAEKLGVDYIVDIATLTGAMLYSLGTSYAGVFGNNEELINKILNSSKTSNEPVWWLPIINEYRATLNSKYADINNISSSVKASSIVASLFLKEFVQNTAWAHIDIAGVSWNFKARKPKGFGVRLLTEFVLNDAL

Biological target: the molecule itself
Experiment: SEC

Protein | stoichiometry N
B1 | 6
B2 | 6
B3 | 6
B4 | 6
